Source: patent US20080008707A1, “Denatured collagen peptides and uses thereof” (Cell-Matrix, Inc., priority 2006, published 2008)
Marks after values point to notes of the source that are not given here. Values belong to the molecule of their own block, whether it stands above or below them. Square brackets hold non-standard residues; d marks the D form. Ends that are not written are not given here. Hyp = O=C(O)[C@@H]1C[C@@H](O)CN1

Columns and labels:
[1] = target: D93, recombinant humanized IgG1 kappa antibody targeting denatured-collagen; test: competition ELISA on coated human dn-collagen IV
[2] = target: HUI77, murine IgM anti-denatured-collagen monoclonal antibody; test: competition ELISA on coated dn-collagen IV
[3] = test system: HUI77 binding to denatured collagen IV; test: Competition ELISA: synthetic peptides blocking HUI77 binding to heat denatured collagen IV; set-up: species or system human
Experimental: (§1) The ELISA was conducted as follows: wells of a 96-well microtiter plate (Immulon, 4 HBX flat-bottomed, Thermo Electron Corporation, Waltham, Mass.) were coated with 100 μL/well of dn-collagen IV at 10 μg/mL in Phosphate Buffered Saline (PBS) overnight at 4° C. The plate was washed 3 times (3×) with PBS containing 0.05% (v/v) Tween-20 (PBST) using an automated plate washer.
(§2) The plate was blocked by adding 300 μL/well of 1% BSA (w/v) in PBS for 1 hour at 25° C. followed by washing 3× in PBST as above.
(§3) Solutions of D93 or HUI77 were prepared with various concentrations of peptide or antibody inhibitor and incubate for 15 minutes. D93 or HUI77 was prepared at 200 ng/mL in 1% BSA/PBS.
(§4) For antibody blocking studies using synthetic peptides: peptide inhibitor stock solutions were prepared at 2 mM, 0.2 mM, 0.02 mM, and 0.002 mM in 1% BSA/PBS. 500 μL of a 2 mM peptide solution in 1% BSA/PBS was prepared and diluted 1:10 in 500 μL a total of three times to make peptide inhibitor concentrations.
(§5) 200 μL of D93 or HUI77 at 200 ng/mL solution was combined with 200 μL of peptide or antibody inhibitor solution and incubated for 15 minutes at room temperature.
(§6) D93 or HUI77 with various concentrations of inhibitors (2 mM, 0.2 mM, 0.02 mM, and 0.002 mM) were added to microplate wells and incubated for 1 hour at 25° C. The plate was washed 3× in PBST as above.
(§7) To each microtiter plate well, 100 μL of diluted anti-human IgG or anti-mouse IgM conjugated to horseradish peroxidase (HRP) in PBST was added and incubated for one hour at 25° C.: (a) for D93: Goat anti-human IgG-HRP (Jackson ImmunoResearch, Catalog No. 109-035-088) was used at 1:20,000 and (b) for HUI77: Goat anti-mouse IgM-HRP was used at 1:4,000. Plates were washed 3× in PBST as above.
(§8) Tetramethylbenzidine (TMB) substrate (100 μL; Pierce Chemicals)) was added to wells and the plates were allowed to develop at room temperature for 15 minutes in the dark. Substrate development was stopped by adding 50 μL/well of 2N H2SO4. The microtiter […] plates were read at 450 nm within five minutes of adding the H2SO4. Reactivity was measured with a microplate reader (Molecular Devices, Sunnyvale, Calif.) at a wavelength of 450 nm and analyzed using SOFTMax® PRO4.0 (Molecular Devices). All samples were tested in triplicate.
(§9) Individual peptides with amino acid substitutions and deletions were also synthesized based on the primary and secondary peptide arrays. […] The inhibitory activity of the individual peptides was tested by ELISA as previously described to measure binding of D93 or HUI77 to denatured collagen where peptides and antibodies were prepared at a 2× concentration and pre-incubated for 15 minutes prior to adding to microtiter plates coated with dn-collagen.
(§10) 96-well plates were coated with 100 μL/well of denatured (dn) collagen IV at 10 μg/mL in phosphate buffered saline (PBS) overnight at 4° C. followed by washing the plates in an automated plate washer 3 times in PBS containing 0.05% (v/v) Tween-20 (PBST). Non-specific binding was prevented by blocking the wells by adding 300 μL/well of 1% bovine serum albumin (BSA) (w/v) in PBS for 1 hour (hr) at 25° C. The plates were washed as above.
(§11) Solutions of D93 and HUI77 antibodies were prepared with various concentrations of inhibitor and incubated for 15 minutes. Briefly, 20 mLs of D93 or HUI77 were prepared at 200 ng/mL in 1% BSA/PBS. Solutions of peptide inhibitors (2 mM, 0.2 mM, […]) were prepared in 1% BSA/PBS. Equal volumes of antibodies and peptide inhibitors were combined: 200 μL of D93 or HUI77 (200 ng/mL solution) with 200 μL of each peptide solution.
(§12) 100 μL/well of D93 or HUI77 at 100 ng/mL with various concentrations of inhibitors were added to the wells in triplicate and incubated for 1 hour at 25° C. The plates were washed as described above.
(§13) 100 μL/well of secondary horseradish peroxidase (HRP)-conjugated antibody in PBST was added to each well and incubated for 1 hour (hr) at 25° C. […]

[4] = test system: D93 binding to human denatured-collagen IV; test: Competition ELISA: synthetic peptides blocking D93 binding to heat denatured collagen IV
Experimental: as §1, §2, §3, §4, §5, §6, §7, §8, §9, §10, §11, §12, §13

[5] = peptide inhibitor concentration 10 μM, average of two studies
[6] = peptide inhibitor concentration 100 μM, asterisk (*): data from a separate assay
[7] = peptide inhibitor concentration 100 μM, average of two studies
[8] = peptide inhibitor concentration 1000 μM, average of two studies
[9] = peptide inhibitor concentration 1 μM, average of two studies, vs 1% BSA/PBS alone
[10] = peptide inhibitor concentration 10 μM, average of two studies, vs 1% BSA/PBS alone
[11] = peptide inhibitor concentration 100 μM, average of two studies, vs 1% BSA/PBS alone
[12] = peptide inhibitor concentration 1000 μM, average of two studies, vs 1% BSA/PBS alone

Sequence of D93, recombinant humanized IgG1 kappa antibody targeting denatured-collagen (heavy, as listed by the source, chain 1 of 2): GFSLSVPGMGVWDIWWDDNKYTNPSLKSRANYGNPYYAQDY
Sequence of D93, recombinant humanized IgG1 kappa antibody targeting denatured-collagen (light, as listed by the source, chain 2 of 2): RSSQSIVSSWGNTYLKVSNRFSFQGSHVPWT

Molecule: G-P-Hyp-G-P-Hyp-G-P-Y (GP[Hyp]GP[Hyp]GPY) [SEQ ID NO: 30]
% INHIBITION OF BINDING OF HUI77 TO DENATURED COLLAGEN IV [3, 5]: 8.5%
% INHIBITION OF BINDING OF HUI77 TO DENATURED COLLAGEN IV [3, 6]: 0%
% INHIBITION OF BINDING OF HUI77 TO DENATURED COLLAGEN IV [3, 7]: 12%
% INHIBITION OF BINDING OF HUI77 TO DENATURED COLLAGEN IV ([3]; peptide inhibitor concentration 1000 μM, asterisk (*): data from a separate assay): 63%
% INHIBITION OF BINDING OF HUI77 TO DENATURED COLLAGEN IV [3, 8]: 78%
% INHIBITION OF BINDING OF D93 TO HUMAN DENATURED-COLLAGEN IV [4, 9]: 33%
% INHIBITION OF BINDING OF D93 TO HUMAN DENATURED-COLLAGEN IV ([4]; peptide inhibitor concentration 10 μM, asterisk (*): data from a separate assay): 79.9* %
% INHIBITION OF BINDING OF D93 TO HUMAN DENATURED-COLLAGEN IV [4, 10]: 82.5, %
% INHIBITION OF BINDING OF D93 TO HUMAN DENATURED-COLLAGEN IV [4, 6]: 90.3%
% INHIBITION OF BINDING OF D93 TO HUMAN DENATURED-COLLAGEN IV [4, 11]: 94%
% INHIBITION OF BINDING OF D93 TO HUMAN DENATURED-COLLAGEN IV [4, 12]: 94%

Molecule: G-P-Hyp-G (GP[Hyp]G) [SEQ ID NO: 34]
% INHIBITION OF BINDING OF HUI77 TO DENATURED COLLAGEN IV [3, 5]: 6.5%
% INHIBITION OF BINDING OF HUI77 TO DENATURED COLLAGEN IV [3, 7]: 9%
% INHIBITION OF BINDING OF HUI77 TO DENATURED COLLAGEN IV [3, 8]: 14%
% INHIBITION OF BINDING OF D93 TO HUMAN DENATURED-COLLAGEN IV [4, 9]: 9.5%
% INHIBITION OF BINDING OF D93 TO HUMAN DENATURED-COLLAGEN IV [4, 10]: 6.5%
% INHIBITION OF BINDING OF D93 TO HUMAN DENATURED-COLLAGEN IV [4, 11]: 11%
% INHIBITION OF BINDING OF D93 TO HUMAN DENATURED-COLLAGEN IV [4, 12]: 52%

B4: synthetic peptide No. 8, LPGTPG (SEQ ID NO: 27) (peptide)
peptide: L[Hyp]GT[Hyp]G
% inhibition of D93 binding to dn-collagen IV, peptide 1 µM [1]: 7%
% inhibition of D93 binding to dn-collagen IV, peptide 10 µM [1]: 2%
% inhibition of D93 binding to dn-collagen IV, peptide 100 µM [1]: 4.5%
% inhibition of D93 binding to dn-collagen IV, peptide 1000 µM [1]: 24%
% inhibition of HUI77 binding to dn-collagen IV, peptide 10 µM [2]: 3.5%
% inhibition of HUI77 binding to dn-collagen IV, peptide 100 µM [2]: 4.5%
% inhibition of HUI77 binding to dn-collagen IV, peptide 1000 µM [2]: 6%

The next lines start with the values.

% inhibition of D93 binding to dn-collagen IV, peptide 1 µM [1]: 9.5%
% inhibition of D93 binding to dn-collagen IV, peptide 10 µM [1]: 6.5%
% inhibition of D93 binding to dn-collagen IV, peptide 100 µM [1]: 11%
% inhibition of D93 binding to dn-collagen IV, peptide 1000 µM [1]: 52%
% inhibition of HUI77 binding to dn-collagen IV, peptide 10 µM [2]: 6.5%
% inhibition of HUI77 binding to dn-collagen IV, peptide 100 µM [2]: 9%
% inhibition of HUI77 binding to dn-collagen IV, peptide 1000 µM [2]: 14%
Molecule: synthetic peptide No. 21, GPPG (SEQ ID NO: 34)

% inhibition of D93 binding to dn-collagen IV, peptide 1 µM [1]: 8%
% inhibition of D93 binding to dn-collagen IV, peptide 10 µM [1]: 6.5%
% inhibition of D93 binding to dn-collagen IV, peptide 100 µM [1]: 6.5%
% inhibition of D93 binding to dn-collagen IV, peptide 1000 µM [1]: 46.5%
% inhibition of HUI77 binding to dn-collagen IV, peptide 10 µM [2]: 6%
% inhibition of HUI77 binding to dn-collagen IV, peptide 100 µM [2]: 9.5%
% inhibition of HUI77 binding to dn-collagen IV, peptide 1000 µM [2]: 17.5%
B1: synthetic peptide No. 14, LPGLPG (SEQ ID NO: 25) (peptide)
peptide: L[Hyp]GL[Hyp]G

% inhibition of D93 binding to dn-collagen IV, peptide 1 µM [1]: 6.5%
% inhibition of D93 binding to dn-collagen IV, peptide 10 µM [1]: 12%
% inhibition of D93 binding to dn-collagen IV, peptide 100 µM [1]: 52.5%
% inhibition of D93 binding to dn-collagen IV, peptide 1000 µM [1]: 90%
% inhibition of HUI77 binding to dn-collagen IV, peptide 10 µM [2]: 3%
% inhibition of HUI77 binding to dn-collagen IV, peptide 100 µM [2]: 8%
% inhibition of HUI77 binding to dn-collagen IV, peptide 1000 µM [2]: 64%
B2: synthetic peptide No. 16, LPGPPG (SEQ ID NO: 24) (peptide)
peptide: L[Hyp]GP[Hyp]G

% inhibition of D93 binding to dn-collagen IV, peptide 1 µM [1]: 9.5%
% inhibition of D93 binding to dn-collagen IV, peptide 10 µM [1]: 3.5%
% inhibition of D93 binding to dn-collagen IV, peptide 100 µM [1]: 2.5%
% inhibition of D93 binding to dn-collagen IV, peptide 1000 µM [1]: 13.5%
% inhibition of HUI77 binding to dn-collagen IV, peptide 10 µM [2]: 8%
% inhibition of HUI77 binding to dn-collagen IV, peptide 100 µM [2]: 10.5%
% inhibition of HUI77 binding to dn-collagen IV, peptide 1000 µM [2]: 8.5%
B3: synthetic peptide No. 10, LPGSPG (SEQ ID NO: 26) (peptide)
peptide: L[Hyp]GS[Hyp]G
